Results on eight molecules are retold here after patent CN114685656A (鲁南制药集团股份有限公司, dated 2022).

Residue numbers refer to the chain shown, from its start.

The target of assay [1] is 猴SIRPα受体 on CHO cells (CHO-cyno-SIRPα) (monkey (cyno)). Briefly: flow cytometry on CHO-cyno-SIRPα cells, PE anti-mouse IgG Fc.
Assay [2] concerns the target 人SIRPα受体 on CHO cells (CHO-huSIRPα) (human) (UniProt P78324). The assay is described as follows: flow cytometry on CHO-huSIRPα cells, PE anti-mouse IgG Fc. On the technique in general: In flow cytometry, cells or beads pass a laser one at a time.
In assay [3] the target is 重组hu-SIRPα-his (human, UniProt P78324 31-370, limits assumed). The assay is described as follows: ELISA on coated hu-SIRPα-his (0.5 μg/ml), anti-mouse IgG-HRP. (In general: An ELISA detects its analyte on a solid surface through an enzyme-linked reagent.)
Assay [4] has as its target T1, 重组hSIRPα (human, UniProt P78324 31-370, limits assumed).
T1 construct: also called SIRPα蛋白; SIRPα抗原
Briefly: competition ELISA on coated hSIRPα (1 μg/ml) against biotinylated CD47-Fc (6 μg/ml).

Assay [5] addresses 人SIRPα受体 on CHO cells (CHO-huSIRPα) (human) (UniProt P78324). Briefly: flow cytometry, hybridoma supernatant on CHO-huSIRPα cells, PE anti-mouse IgG Fc.
Assay [6] concerns the target 猴SIRPα受体 on CHO cells (CHO-cyno-SIRPα) (monkey (cyno)). Briefly: flow cytometry, hybridoma supernatant on CHO-cyno-SIRPα cells, PE anti-mouse IgG Fc.
The target in assay [7] is T2, 重组hSIRPg-his (human, UniProt Q9P1W8 29-360, limits assumed).
T2 construct: also called sirp-γ
The assay is described as follows: competition ELISA on coated hSIRPg-his (1 μg/ml) against biotinylated CD47-Fc (6 μg/ml).

Assay [8] deals with T1, 重组hSIRPα. Briefly: SPR (Biacore T200), antibody captured on Protein A chip, SIRPα protein as analyte, 1:1 Langmuir fit. In general terms: In SPR one partner is held on a chip, and binding of the other changes the refractive index at the surface.
For assay [9], the target named is T2, 重组hSIRPg-his. Briefly: ELISA on coated hSIRPg-his (1 μg/ml), anti-mouse IgG-HRP.

Regarding mIgG (antibody), the MFI in [1] came out at 76.4 MFI; in [2] it was 86.6 MFI.

Broadly, the EC50 is the concentration that produces a half-maximal response. By IC50 is commonly meant the point on the concentration scale where inhibition reaches its midpoint. In [3], SE5A5 (antibody) registered an EC50 of 0.0225 µg/mL. This molecule also gave an IC50 in assay [4] of 0.121 µg/mL.

B1: 36D6 (antibody, V domains shown)
VH: EVQLQESGPELKKPGETVKISCKASGYTFTKYGMNWVKQAPGKGLKWLAWINTDTGEAKYSDDFKGRFAFSLETSASIVYLQINNLKNEDTATYFCARGESYSNYVRFVYWGQGTTVTVSS
VL: DIVMTQSHKFMSTSVGDRVSITCKASQDVNTAVAWYQQKAGHSPKLLIYWTSTRHTGVPDRFTGSGSGTDYTLTISSVQAEDLTLYYCQQHYSTPWTFGGGTKLEIK
notes: also called 抗SIRPα抗体36D6
Molecule B1 displayed an EC50 in [3] of 0.0192 µg/mL. The MFI in [5] stood at 9270 MFI; in assay [6] it was 5000 MFI. Further, the IC50 in assay [4] amounted to 0.248 µg/mL.

B2: Kwar23 (antibody, V domains shown)
VH: EVQLQQSGAELVKPGASVKLSCTASGFNIKDYYIHWVQQRTEQGLEWIGRIDPEDGETKYAPKFQDKATITADTSSNTAYLHLSSLTSEDTAVYYCARWGAYWGQGTLVTVSS
VL: QIVLTQSPAIMSASPGEKVTLTCSASSSVSSSYLYWYQQKPGSSPKLWIYSTSNLASGVPARFSGSGSGTSYSLTISSMEAEDAASYFCHQWSSYPRTFGAGTKLELK
Regarding B2, the IC50 in assay [7] is 0.0394 µg/mL.

B3: 40F3 (antibody, V domains shown)
VH: QVQLQQPGAELGKPGASVKLSCKASGYTFSSYYIYWLKQRPGQGLEWIGGINPSNDDTHLTEKFKSKATLIADRSSSTAYIQLSSLTSEDSAVYYCTRSYYANSWFAYWGQGTLVTVSA
VL: DIVLTQSPLSLPVSLGDQASISCRSSQTIVHSNGNTYLAWYLQKPGQSPKLLIYKVSNRFSGVPDRFSGSGSGTEFTLKISRVEAEDLGVYYCFQGSHVPYTFGGGTKLEIK
notes: also called 抗SIRPα抗体40F3
One may read the Kd as a measure of binding affinity in units of concentration. With B3, in [3], the midpoint of the response, the EC50, lay at 0.00587 µg/mL. The Kd in assay [8] was roughly 0.01 nM. Besides, the MFI in assay [5] was determined as 17200 MFI; in assay [6], 7570 MFI. Further, the binding result in assay [9] is listed as “no binding”. The same molecule had an IC50 in assay [4] of 0.0653 µg/mL.

B4: 36G4 (antibody, V domains shown)
VH: EVQLVESGGGLVQPGGSLKLSCAASGFTFSNYGMSWVRQTPDKRLELVATINSNGGDTSYPDSVRGRFTISRDNAKNTLYLQMSSLKSEDTAMYYCTRGGWSWFAYWGQGTLVTVSA
VL: DIVLTQSPTSLAVSLGQRATISCRASESADSYGNSYMNWYQQKPGQPPKLLIYLASNLESGVPARFSGSGSRTDFTLTIDPVEADDAATYYCQQINEDPYTFGGGTKLEIK
notes: also called 抗SIRPα抗体36G4
Consider B4, for which a half-maximal response in assay [3] (EC50) required 0.0235 µg/mL. The MFI in [5] is 9520 MFI; in [6] it was 4560 MFI. Moreover, the IC50 in assay [4] worked out at 0.15 µg/mL.

B5: 52B3 (antibody, V domains shown)
VH: EVQLQQSGAELVRSGASVKMSCKASDYTFTSYNLHWVKQTPGQGLEWIGYIYPGNGNTKYSQKFKGKATLTADTSSSTAYMQISSLTSEDSAVYFCTRNYDYYFYTMGYWGQGTTVTVSS
VL: DIVLTQSPKFMSTSVGDRVNITCKASQDVCTAVAWYQQKPGQSPKLLIYSASYRYTGVPDRFTGSGSRTDFTFTISSVQAEDLAVYYCQQHYSTPLTFGAGTKLELK
notes: also called 抗SIRPα抗体52B3
Molecule B5 came in with an EC50 in [3] of 0.00736 µg/mL. The MFI in assay [5] was determined as 13600 MFI; in assay [6], 6980 MFI. Moreover, the IC50 in assay [7] stood at 0.196 µg/mL; in [4], 0.121 µg/mL.

B6: 57B10 (antibody, V domains shown)
VH: B5 VH with Q3K, Q6E, D26G, L34M, V37I, N57A, K59N, S61N, T97A, G108D
VL: B5 VL with P8T, N20S, C30S, Y86F, Y92F, T94A
notes: also called 抗SIRPα抗体57B10
Molecule B6 displayed an EC50 in [3] of 0.00546 µg/mL. The same molecule had a Kd in assay [8] of roughly 0.01 nM. Moreover, the MFI was found to be 18500 MFI in [5] and 9230 MFI in assay [6]. In assay [4], the IC50 is 0.0633 µg/mL.
